Source: PMC6003631

Assays:
[1] = target: human μ receptor-Rluc (human) (UniProt P35372)
[2] = target: rat HA-μ receptor (rat) (UniProt P33535)
UniProt P33535, sequence (P33535 whole entry): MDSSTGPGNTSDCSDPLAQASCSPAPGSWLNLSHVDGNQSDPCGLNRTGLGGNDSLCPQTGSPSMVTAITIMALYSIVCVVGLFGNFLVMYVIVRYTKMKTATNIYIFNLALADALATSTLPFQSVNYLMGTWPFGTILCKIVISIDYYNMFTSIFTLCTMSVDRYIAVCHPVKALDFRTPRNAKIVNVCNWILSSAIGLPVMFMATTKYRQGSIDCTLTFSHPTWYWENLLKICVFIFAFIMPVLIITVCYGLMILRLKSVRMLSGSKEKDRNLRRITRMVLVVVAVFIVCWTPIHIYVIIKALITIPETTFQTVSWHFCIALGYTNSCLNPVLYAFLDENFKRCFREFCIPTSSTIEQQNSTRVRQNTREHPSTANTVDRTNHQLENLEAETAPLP

UniProt P35372, sequence (P35372 whole entry): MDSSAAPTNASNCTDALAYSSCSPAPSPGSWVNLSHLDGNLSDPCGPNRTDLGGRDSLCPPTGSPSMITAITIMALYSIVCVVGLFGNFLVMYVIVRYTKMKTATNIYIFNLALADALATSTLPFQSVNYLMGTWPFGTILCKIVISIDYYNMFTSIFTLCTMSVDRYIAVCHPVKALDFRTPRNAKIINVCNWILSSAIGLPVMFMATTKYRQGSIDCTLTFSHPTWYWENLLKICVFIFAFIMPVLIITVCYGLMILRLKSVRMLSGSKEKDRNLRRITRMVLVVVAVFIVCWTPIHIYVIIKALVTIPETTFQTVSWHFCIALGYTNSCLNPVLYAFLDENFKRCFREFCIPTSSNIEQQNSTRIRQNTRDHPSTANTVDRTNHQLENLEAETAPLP

arrestin-3 recruitment to the μ receptor (BRET between human μ receptor-Rluc and arrestin-3-GFP) in HEK 293 cells, EC50 [1]: 1.2 µM
Gi activation (decrease of the BRET signal between Gαi1-RlucII and GFP10-Gγ2) in HEK 293 cells expressing rat HA-μ receptors, EC50 [2]: 0.39 µM
Gi activation (decrease of the BRET signal between Gαi1-RlucII and GFP10-Gγ2) in HEK 293 cells expressing rat HA-μ receptors, maximum response (BRET ratio) [2]: 12.4 BRET ratio
Substance: D-Ala^2, N-MePhe^4, Gly-ol-enkephalin (peptide)
